Reference: patent US20060246084A1

Key:
[1] = target: receptors of human cells in the presence of IFN-α2 (human) (UniProt P01563); assay: 125I-LcrV68-326 plus unlabelled IFN-α2 on U937 cells
[2] = target: receptors of human cells in the presence of IFN-α2 (human) (UniProt P01563); assay: 125I-LcrV68-326 plus unlabelled IFN-α2 on human thymocytes
[3] = target: receptors of human cells in the presence of IFN-α2 (human) (UniProt P01563); assay: 125I-LcrV68-326 plus unlabelled IFN-α2 on human monocytes
[4] = target: synthetic fragment of the mouse TLR-2 extracellular domain (mouse)
[5] = target: receptors of human cells in the presence of IFN-α2 (human) (UniProt P01563); assay: 125I-LcrV68-326 plus unlabelled IFN-α2 on human neutrophils
[6] = target: IFN-γ receptor on human cells (no IFN-γ added) (human) (UniProt P15260); assay: 125I-LcrV68-326 alone on human monocytes
[7] = target: IFN-γ receptor on human cells (no IFN-γ added) (human) (UniProt P15260); assay: 125I-LcrV68-326 alone on U937 cells
[8] = target: IFN-γ receptor on human cells (no IFN-γ added) (human) (UniProt P15260); assay: 125I-LcrV68-326 alone on human thymocytes
[9] = target: human TLR-2 receptor on CD14-positive human thymic epithelial VTEC2.HS cells (human) (UniProt O60603); assay: Scatchard analysis, 125I radioligand on VTEC2.HS cells
[10] = target: IFN-γ receptor on human cells (no IFN-γ added) (human) (UniProt P15260); assay: 125I-LcrV68-326 alone on human neutrophils
[11] = target: IFN-γ C-terminal peptide … (human)
[12] = target: human TLR-2 receptor on CD14-positive human thymic epithelial VTEC2.HS cells (human) (UniProt O60603); assay: 125I radioligand on VTEC2.HS cells; binding not detectable

Chain of IFN-γ receptor on human cells (no IFN-γ added) (human) (P15260 18-489): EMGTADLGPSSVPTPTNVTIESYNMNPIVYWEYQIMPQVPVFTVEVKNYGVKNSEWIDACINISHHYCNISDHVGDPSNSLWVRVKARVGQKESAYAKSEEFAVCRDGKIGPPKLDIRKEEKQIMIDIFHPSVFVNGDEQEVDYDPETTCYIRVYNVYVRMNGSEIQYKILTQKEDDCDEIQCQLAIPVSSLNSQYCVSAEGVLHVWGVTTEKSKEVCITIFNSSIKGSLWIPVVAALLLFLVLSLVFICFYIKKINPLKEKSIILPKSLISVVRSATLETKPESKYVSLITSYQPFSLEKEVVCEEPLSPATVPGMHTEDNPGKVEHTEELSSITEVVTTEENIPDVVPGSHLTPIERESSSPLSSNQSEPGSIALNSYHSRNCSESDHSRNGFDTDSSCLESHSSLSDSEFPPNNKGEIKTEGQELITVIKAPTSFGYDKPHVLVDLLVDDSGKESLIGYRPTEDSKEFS
Chain of human TLR-2 receptor on CD14-positive human thymic epithelial VTEC2.HS cells (human) (O60603 21-784): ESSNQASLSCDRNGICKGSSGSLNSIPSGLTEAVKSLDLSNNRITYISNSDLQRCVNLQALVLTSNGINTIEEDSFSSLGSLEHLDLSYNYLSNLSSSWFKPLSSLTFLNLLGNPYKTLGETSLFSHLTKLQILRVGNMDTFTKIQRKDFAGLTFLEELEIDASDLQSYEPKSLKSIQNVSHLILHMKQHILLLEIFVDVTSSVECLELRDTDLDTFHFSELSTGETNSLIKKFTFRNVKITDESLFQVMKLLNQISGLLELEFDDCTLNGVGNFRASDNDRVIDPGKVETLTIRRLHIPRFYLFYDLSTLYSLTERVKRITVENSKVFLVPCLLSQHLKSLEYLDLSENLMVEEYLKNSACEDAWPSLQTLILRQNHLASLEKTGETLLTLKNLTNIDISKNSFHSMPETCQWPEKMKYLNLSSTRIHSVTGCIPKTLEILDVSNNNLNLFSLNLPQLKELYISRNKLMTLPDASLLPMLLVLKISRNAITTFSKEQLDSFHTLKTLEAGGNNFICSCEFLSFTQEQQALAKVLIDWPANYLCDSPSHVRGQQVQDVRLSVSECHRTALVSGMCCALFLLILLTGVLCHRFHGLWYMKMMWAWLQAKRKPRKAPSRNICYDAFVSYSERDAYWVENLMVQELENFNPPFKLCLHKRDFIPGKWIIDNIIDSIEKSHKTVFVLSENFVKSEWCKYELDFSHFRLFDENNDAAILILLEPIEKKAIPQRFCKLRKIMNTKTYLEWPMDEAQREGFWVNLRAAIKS

LcrV68-326, N-terminally truncated LcrV (from UniProt P0C7U7 68-326)
Kd [1]: 1 mM | Kd [2]: 1 mM | Kd [3]: 1 mM | Kd [4]: 0.55 nM | Kd [5]: 1 mM

LcrV68-326, N-terminally truncated LcrV (from UniProt P0C7U7 68-326) (other; other documents disagree on this pair)
Kd [6]: 1 mM | Kd [7]: 1 mM | Kd [8]: 1 mM | Kd [9]: 0.8 nM | Kd [10]: 1 mM

LcrV (V antigen) of Yersinia pestis KIM, recombinant, freed of hexahistidine (from UniProt P0C7U7 1-326)
Kd [11]: 6 pM

LcrV (V antigen) of Yersinia pestis KIM, recombinant, freed of hexahistidine (from UniProt P0C7U7 1-326) (other; other documents disagree on this pair)
Kd [12]: 1 mM
